Data as given in the supplement of paper PMC9112550, “Optimization of the antimicrobial peptide Bac7 by deep mutational scanning” (BMC Biology, 2022).

Tested on: Escherichia coli TOP10
Test: shrunken log2 fold change of peptide-encoding DNA abundance (4.5 h post-induction vs induction); higher = less antimicrobial activity (less host growth inhibition)
Settings: time post-induction: 4.5 h; library: site-saturation at positions 5, 18, 19, 20
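Note: peptides expressed intracellularly from a pBAD plasmid library in pooled LB shake-flask culture, induced with 0.3% L-arabinose, DNA abundance read by NGS, three biological replicates, DESeq2 with apeglm shrinkage.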

| Sequence | shrunken log2 fold change |
| --- | --- |
| RRIRHRPPRLPRPRPRPTMDPRP | -0.179 |
| RRIRMRPPRLPRPRPRPADNPRP | 0.0259 |
| RRIRVRPPRLPRPRPRPERYPRP | 0.133 |
| RRIRLRPPRLPRPRPRPLMLPRP | -0.257 |
| RRIRRRPPRLPRPRPRPQANPRP | 0.118 |
| RRIRTRPPRLPRPRPRPIFHPRP | -0.204 |
| RRIRCRPPRLPRPRPRPNCWPRP | 0.078 |
| RRIRYRPPRLPRPRPRPPMPPRP | 0.0328 |
| RRIRKRPPRLPRPRPRPDMTPRP | 1.34 |
| RRIRVRPPRLPRPRPRPDDNPRP | -0.0966 |
| RRIRNRPPRLPRPRPRPSLWPRP | 0.159 |
| RRIRIRPPRLPRPRPRPSNGPRP | 0.0107 |
| RRIRVRPPRLPRPRPRPVHQPRP | 0.241 |
| RRIRRRPPRLPRPRPRPKIVPRP | 0.0944 |
| RRIRLRPPRLPRPRPRPDCYPRP | -0.558 |
| RRIRLRPPRLPRPRPRPNSGPRP | -0.095 |
| RRIRHRPPRLPRPRPRPGLPPRP | 0.118 |
| RRIRWRPPRLPRPRPRPIIKPRP | -0.312 |
| RRIRARPPRLPRPRPRPWQRPRP | 0.000557 |
| RRIRWRPPRLPRPRPRPPKAPRP | -0.0568 |
| RRIRLRPPRLPRPRPRPKRIPRP | 0.109 |
| RRIRKRPPRLPRPRPRPLCFPRP | 0.188 |
| RRIRWRPPRLPRPRPRPGLDPRP | 0.601 |
| RRIRRRPPRLPRPRPRPTGEPRP | 0.337 |
| RRIRNRPPRLPRPRPRPMPNPRP | -0.0406 |

| Sequence | shrunken log2 fold change |
| --- | --- |
| RRIRERPPRLPRPRPRPWSNPRP | -0.0583 |
| RRIRLRPPRLPRPRPRPYASPRP | 0.000498 |
| RRIRYRPPRLPRPRPRPNIHPRP | -0.98 |
| RRIRIRPPRLPRPRPRPTMPPRP | -0.22 |
| RRIRFRPPRLPRPRPRPKETPRP | -0.0433 |
| RRIRFRPPRLPRPRPRPSPDPRP | -0.0261 |
| RRIRFRPPRLPRPRPRPSKGPRP | -0.115 |
| RRIRGRPPRLPRPRPRPPGPPRP | 0.821 |
| RRIRFRPPRLPRPRPRPDMQPRP | -0.313 |
| RRIRNRPPRLPRPRPRPGQQPRP | -0.0199 |
| RRIRHRPPRLPRPRPRPPFNPRP | -0.256 |
| RRIRRRPPRLPRPRPRPKYQPRP | -0.017 |
| RRIRYRPPRLPRPRPRPWLCPRP | -0.0909 |
| RRIRNRPPRLPRPRPRPIFCPRP | -0.0368 |
| RRIRERPPRLPRPRPRPQASPRP | -0.328 |
| RRIRKRPPRLPRPRPRPSKTPRP | 0.0486 |
| RRIRTRPPRLPRPRPRPFPNPRP | -0.105 |
| RRIRWRPPRLPRPRPRPCHWPRP | -0.116 |
| RRIRYRPPRLPRPRPRPIFAPRP | 0.159 |
| RRIRRRPPRLPRPRPRPANWPRP | 0.387 |
| RRIRFRPPRLPRPRPRPVSWPRP | 0.44 |
| RRIRCRPPRLPRPRPRPRYFPRP | -0.529 |
| RRIRIRPPRLPRPRPRPLSFPRP | -0.687 |
| RRIRPRPPRLPRPRPRPRHNPRP | -0.0793 |
| RRIRFRPPRLPRPRPRPYNKPRP | -0.955 |

| Sequence | shrunken log2 fold change |
| --- | --- |
| RRIRDRPPRLPRPRPRPWACPRP | 0.0329 |
| RRIRARPPRLPRPRPRPESAPRP | 0.858 |
| RRIRNRPPRLPRPRPRPWDYPRP | -0.0686 |
| RRIRWRPPRLPRPRPRPNIIPRP | -0.486 |
| RRIRARPPRLPRPRPRPCQGPRP | -0.11 |
| RRIRLRPPRLPRPRPRPPFVPRP | 0.00109 |
| RRIRERPPRLPRPRPRPIISPRP | -0.209 |
| RRIRCRPPRLPRPRPRPDVRPRP | -0.0317 |
| RRIRQRPPRLPRPRPRPVLTPRP | 0.0694 |
| RRIRNRPPRLPRPRPRPWKEPRP | -0.59 |
| RRIRHRPPRLPRPRPRPCYPPRP | -0.384 |
| RRIRYRPPRLPRPRPRPAHRPRP | 0.0479 |
| RRIRKRPPRLPRPRPRPPPTPRP | 1.11 |
| RRIRQRPPRLPRPRPRPMFLPRP | -0.38 |
| RRIRHRPPRLPRPRPRPLMMPRP | -0.124 |
| RRIRLRPPRLPRPRPRPGSSPRP | 0.0118 |
| RRIRKRPPRLPRPRPRPNQFPRP | 0.103 |
| RRIRKRPPRLPRPRPRPELCPRP | -0.021 |
| RRIRWRPPRLPRPRPRPQTMPRP | -0.00112 |
| RRIRFRPPRLPRPRPRPYILPRP | -1.31 |
| RRIRNRPPRLPRPRPRPPVRPRP | 0.489 |
| RRIRCRPPRLPRPRPRPKIYPRP | -0.643 |
| RRIRLRPPRLPRPRPRPITNPRP | -0.391 |
| RRIRYRPPRLPRPRPRPAINPRP | -0.051 |
| RRIRRRPPRLPRPRPRPNHRPRP | -0.0368 |

| Sequence | shrunken log2 fold change |
| --- | --- |
| RRIRNRPPRLPRPRPRPRLMPRP | -0.142 |
| RRIRTRPPRLPRPRPRPNHCPRP | -0.479 |
| RRIRMRPPRLPRPRPRPAIHPRP | 0.156 |
| RRIRCRPPRLPRPRPRPHTLPRP | -0.731 |
| RRIRWRPPRLPRPRPRPPRNPRP | 0.794 |
| RRIRFRPPRLPRPRPRPYRAPRP | -0.353 |
| RRIRSRPPRLPRPRPRPYTSPRP | -0.14 |
| RRIRTRPPRLPRPRPRPWAAPRP | -0.0363 |
| RRIRVRPPRLPRPRPRPGCTPRP | -0.246 |
| RRIRQRPPRLPRPRPRPCGMPRP | -0.199 |
| RRIRHRPPRLPRPRPRPDVKPRP | -0.0186 |
| RRIRKRPPRLPRPRPRPQWSPRP | 0.00166 |
| RRIRGRPPRLPRPRPRPVSCPRP | 0.885 |
| RRIRPRPPRLPRPRPRPAYQPRP | -0.0181 |
| RRIRTRPPRLPRPRPRPKADPRP | -0.0127 |
| RRIRMRPPRLPRPRPRPRDLPRP | 0.266 |
| RRIRKRPPRLPRPRPRPRLSPRP | 0.0586 |
| RRIRKRPPRLPRPRPRPKKDPRP | 0.337 |
| RRIRDRPPRLPRPRPRPKQVPRP | -0.185 |
| RRIRTRPPRLPRPRPRPLVLPRP | -0.162 |
| RRIRDRPPRLPRPRPRPWFAPRP | -0.0921 |
| RRIRYRPPRLPRPRPRPLNWPRP | -0.594 |
| RRIRNRPPRLPRPRPRPPGTPRP | 0.241 |
| RRIRQRPPRLPRPRPRPLTIPRP | -0.375 |
| RRIRPRPPRLPRPRPRPPETPRP | 0.407 |

| Sequence | shrunken log2 fold change |
| --- | --- |
| RRIRDRPPRLPRPRPRPVCMPRP | 0.219 |
| RRIRWRPPRLPRPRPRPSMRPRP | 0.707 |
| RRIRQRPPRLPRPRPRPCKYPRP | -0.0164 |
| RRIRQRPPRLPRPRPRPNCAPRP | 0.00462 |
| RRIRSRPPRLPRPRPRPHERPRP | 7.23e-05 |
| RRIRRRPPRLPRPRPRPDKDPRP | 0.00839 |
| RRIRVRPPRLPRPRPRPDAMPRP | 0.0806 |
| RRIRERPPRLPRPRPRPWPTPRP | 0.549 |
| RRIRIRPPRLPRPRPRPEDGPRP | -0.00203 |
| RRIRWRPPRLPRPRPRPQRIPRP | 0.107 |
| RRIRCRPPRLPRPRPRPASMPRP | -0.412 |
| RRIRNRPPRLPRPRPRPWCPPRP | -0.752 |
| RRIRMRPPRLPRPRPRPHHMPRP | -0.321 |
| RRIRSRPPRLPRPRPRPSASPRP | 0.0953 |
| RRIRERPPRLPRPRPRPVYMPRP | -0.481 |
| RRIRQRPPRLPRPRPRPPHCPRP | 0.0459 |
| RRIRCRPPRLPRPRPRPFCQPRP | -0.353 |
| RRIRNRPPRLPRPRPRPPCVPRP | 0.0341 |
| RRIRWRPPRLPRPRPRPFYQPRP | -0.0811 |
| RRIRARPPRLPRPRPRPVDKPRP | 0.363 |
| RRIRRRPPRLPRPRPRPFINPRP | -0.211 |
| RRIRTRPPRLPRPRPRPGGSPRP | 0.135 |
| RRIRDRPPRLPRPRPRPKYMPRP | -0.326 |
| RRIRTRPPRLPRPRPRPYSMPRP | -2.42 |
| RRIRPRPPRLPRPRPRPVLCPRP | 0.282 |

| Sequence | shrunken log2 fold change |
| --- | --- |
| RRIRGRPPRLPRPRPRPWMQPRP | -0.539 |
| RRIRPRPPRLPRPRPRPEFSPRP | -0.0202 |
| RRIRNRPPRLPRPRPRPMMRPRP | 0.0611 |
| RRIRRRPPRLPRPRPRPILCPRP | 0.48 |
| RRIRGRPPRLPRPRPRPDNCPRP | -0.0626 |
| RRIRARPPRLPRPRPRPVTSPRP | 0.293 |
| RRIRLRPPRLPRPRPRPKHYPRP | -0.406 |
| RRIRTRPPRLPRPRPRPRTSPRP | 0.098 |
| RRIRMRPPRLPRPRPRPLERPRP | 0.00972 |
| RRIRARPPRLPRPRPRPQFMPRP | 0.546 |
| RRIRWRPPRLPRPRPRPMGWPRP | 0.299 |
| RRIRVRPPRLPRPRPRPKFAPRP | 0.0713 |
| RRIRDRPPRLPRPRPRPIADPRP | 0.163 |
| RRIRKRPPRLPRPRPRPLFNPRP | 0.0323 |
| RRIRDRPPRLPRPRPRPNHYPRP | -0.459 |
| RRIRYRPPRLPRPRPRPIGFPRP | 0.0062 |
| RRIRERPPRLPRPRPRPRDWPRP | 0.311 |
| RRIRSRPPRLPRPRPRPGLYPRP | -0.106 |
| RRIRNRPPRLPRPRPRPMDVPRP | 0.0039 |
| RRIRLRPPRLPRPRPRPACNPRP | -0.191 |
| RRIRLRPPRLPRPRPRPAIWPRP | 0.016 |
| RRIRTRPPRLPRPRPRPKSPPRP | -0.0758 |
| RRIRFRPPRLPRPRPRPPFRPRP | 1.84 |
| RRIRVRPPRLPRPRPRPLMIPRP | -0.361 |
| RRIRGRPPRLPRPRPRPVHGPRP | -0.244 |
